According to the supplement of paper PMC9233669:
Variants at the floor of the assay were thinned out.

Tests used:
[1] = system: biotinyl-Phe-oxazolone; experiment: self-aminoacylation, catalytic enhancement (BFO) (fold over background); higher = more active; k-Seq, kA / k0A0; sequences stand for … in GGGAAUGGAUCCACAUCUACGAAUUC…UUCACUGCAGACUUGACGAAGCUG
Method in brief: (§1)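 Working in 50 μL HEPES/NaCl/KCl/MgCl2/CaCl2 buffer with 5% acetonitrile at pH 6.9–7.0, mutagenized RNA pools (0.43 μM; 21-nt variable region) were reacted with 2–1250 μM of each biotinyl-aminoacyl-oxazolone for 90 minutes at room temperature. Streptavidin capture followed, with quantification by triplicate qPCR and Illumina sequencing. Catalytic enhancement is reported as median kA over the uncatalyzed rate, the low-activity peak of a bimodal Gaussian fit to the data.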

[2] = system: biotinyl-Ile-oxazolone; experiment: self-aminoacylation, catalytic enhancement (BIO) (fold over background); higher = more active; k-Seq, kA / k0A0; sequences stand for … in GGGAAUGGAUCCACAUCUACGAAUUC…UUCACUGCAGACUUGACGAAGCUG
Method in brief: as §1

[3] = system: biotinyl-Met-oxazolone; experiment: self-aminoacylation, catalytic enhancement (BMO) (fold over background); higher = more active; k-Seq, kA / k0A0; sequences stand for … in GGGAAUGGAUCCACAUCUACGAAUUC…UUCACUGCAGACUUGACGAAGCUG
Method in brief: as §1

[4] = system: biotinyl-Val-oxazolone; experiment: self-aminoacylation, catalytic enhancement (BVO) (fold over background); higher = more active; k-Seq, kA / k0A0; sequences stand for … in GGGAAUGGAUCCACAUCUACGAAUUC…UUCACUGCAGACUUGACGAAGCUG
Method in brief: as §1

[5] = system: biotinyl-Leu-oxazolone; experiment: self-aminoacylation, catalytic enhancement (BLO) (fold over background); higher = more active; k-Seq, kA / k0A0; sequences stand for … in GGGAAUGGAUCCACAUCUACGAAUUC…UUCACUGCAGACUUGACGAAGCUG
Method in brief: as §1

[6] = system: biotinyl-Trp-oxazolone; experiment: self-aminoacylation, catalytic enhancement (BWO) (fold over background); higher = more active; k-Seq, kA / k0A0; sequences stand for … in GGGAAUGGAUCCACAUCUACGAAUUC…UUCACUGCAGACUUGACGAAGCUG
Method in brief: as §1

Sequence | self-aminoacylation [1] | self-aminoacylation [2] | self-aminoacylation [3] | self-aminoacylation [4] | self-aminoacylation [5] | self-aminoacylation [6]
CCACACUUCAAGCAAUCGCUA [Fam1B.1 aminoacylation ribozyme variant] | 1.05 | 1.41 | 1.22 | 1.94 | 1.44 | 1.27
AUUACCAUCGUCAUCGAGUGA [Fam2.1 aminoacylation ribozyme variant] | 5.68 | 2.21 | 3.19 | 2.32 | 3.6 | 3.53
AUUACCCCGGUCAUCGAGUGA [Fam2.1 aminoacylation ribozyme variant] | 27.9 | 2.93 | 5.35 | 3.2 | 5.4 | 6.34
CUACUUCAAACUAUCGGCCUG [Fam1A.1 aminoacylation ribozyme variant] | 0.97 | 1.2 | 1.13 | 1.06 | 0.909 | 1.66
AUUCGCCUAGGUCAUCGGGAG [Fam2.2 aminoacylation ribozyme variant] | 2.55 | 1.29 | 1.51 | 1.54 | 1.87 | 0.98
AUUCCCCUAGGUCCUCGGGUG [Fam2.2 aminoacylation ribozyme variant] | 241 | 19.6 | 26.9 | 17.1 | 37.9 | 24.6
AUUCACCUAGGUCCGCGGGUG [Fam2.2 aminoacylation ribozyme variant] | 50.3 | 5.39 | 9.13 | 4.58 | 8.76 | 7.69
CCAUACUUCAAGGAAUCGGUC [Fam1B.1 aminoacylation ribozyme variant] | 3.91 | 0.976 | 1.06 | 0.934 | 1.07 | 3.57
AUUAUCCCGGUCAUCGAGUGA [Fam2.1 aminoacylation ribozyme variant] | 61.2 | 4.32 | 8.46 | 4.35 | 10.6 | 11
AUUACCCUGGUCAUCGAGGGA [Fam2.1 aminoacylation ribozyme variant] | 9.56 | 2.71 | 5.93 | 2.99 | 5.66 | 5.46
CGACACUUCAAUCAAUCGGUC [Fam1B.1 aminoacylation ribozyme variant] | 14.7 | 1.04 | 0.958 | 1.05 | 1.15 | 7.59
AUUCCCCUCGUCAUCGAGUGA [Fam2.1 aminoacylation ribozyme variant] | 15.8 | 3.49 | 4.49 | 3.46 | 4.4 | 5.17
CUACUUCAAGCAAUCGGUUUG [Fam1A.1 aminoacylation ribozyme variant] | 11.5 | 1.11 | 0.981 | 1.03 | 1.35 | 8.79
AGUACCCUGGCCAUCGAGUGA [Fam2.1 aminoacylation ribozyme variant] | 10.2 | 2.53 | 3.41 | 3.11 | 4.09 | 4.09
AUGUUUGCUGAUAGUCGCAAG [Fam3.1 aminoacylation ribozyme variant] | 3.84 | 1.81 | 1.1 | 1.37 | 1.33 | 1.38
CUACACCUAGGUCAUCGGGUG [Fam2.2 aminoacylation ribozyme variant] | 3.13 | 1.72 | 2.27 | 1.72 | 2.12 | 2.08
AUGACCCUCGUCAUCGAGUGA [Fam2.1 aminoacylation ribozyme variant] | 14.7 | 2.05 | 3.35 | 2.06 | 3.43 | 3.73
AAGUUUGCUAAUCGUCGCAAU [Fam3.1 aminoacylation ribozyme variant] | 0.833 | 1.39 | 1.3 | 1.3 | 1.04 | 1.03
AGUCCCCUAGGUCAUCGGGUG [Fam2.2 aminoacylation ribozyme variant] | 93.9 | 8.61 | 12 | 7.97 | 16.9 | 11.4
CCACACUUCUAGCAAUCUGUC [Fam1B.1 aminoacylation ribozyme variant] | 0.693 | 0.424 | 0.378 | 0.502 | 0.354 | 0.292
AUUCACCGAAGUCAUCGGGUG [Fam2.2 aminoacylation ribozyme variant] | 152 | 9.89 | 17.6 | 9.73 | 23.7 | 15.1
ACUCACCUACGUCAUCGGGUG [Fam2.2 aminoacylation ribozyme variant] | 57.3 | 3.98 | 6.25 | 4.69 | 7.79 | 6.64
CCACAGUUCAAGGAAUCGGUC [Fam1B.1 aminoacylation ribozyme variant] | 1.09 | 1.23 | 1.12 | 1.19 | 1.33 | 1.18
CUACUUCAAACAAGCGGCCUG [Fam1A.1 aminoacylation ribozyme variant] | 0.592 | 2.41 | 1.32 | 1.83 | 2.08 | 1.68
AUUACCCUGAUCAUCGAGUGG [Fam2.1 aminoacylation ribozyme variant] | 2.77 | 1.52 | 2.82 | 1.62 | 2.42 | 2.13
AUUCAUCUAAGUCAUCGGGUG [Fam2.2 aminoacylation ribozyme variant] | 86.6 | 6.41 | 10.9 | 5.64 | 15 | 10.9

Sequence | self-aminoacylation [1] | self-aminoacylation [2] | self-aminoacylation [3] | self-aminoacylation [4] | self-aminoacylation [5] | self-aminoacylation [6]
CUACUUCAAACAAGCGUUCUG [Fam1A.1 aminoacylation ribozyme variant] | 0.391 | 0.481 | 0.499 | 0.499 | 0.517 | 0.503
AAGUUUGCUAAUAGGCCCAAG [Fam3.1 aminoacylation ribozyme variant] | 0.737 | 1.32 | 0.899 | 1.23 | 0.847 | 1.2
CCAAAAUUCAAGCAAUCGGUC [Fam1B.1 aminoacylation ribozyme variant] | 1.09 | 1.17 | 1.01 | 1.21 | 1.08 | 1.13
CCACACUUCAAACAAGCGGUC [Fam1B.1 aminoacylation ribozyme variant] | 0.971 | 0.922 | 0.68 | 0.746 | 0.728 | 0.603
CCACAGUUCAGGCAAUCGGUC [Fam1B.1 aminoacylation ribozyme variant] | 8.63 | 2.02 | 1.65 | 2.27 | 2.28 | 2.25
AUUGACCUCGGUCAUCGGGUG [Fam2.2 aminoacylation ribozyme variant] | 20.3 | 3.05 | 4.12 | 3.69 | 4.55 | 3.78
AUUAUCCUGGUCAUCGAGAGA [Fam2.1 aminoacylation ribozyme variant] | 1.15 | 1.08 | 0.869 | 0.989 | 0.847 | 0.862
AUUACUCUGGUCACCGAGUGA [Fam2.1 aminoacylation ribozyme variant] | 44.4 | 3.28 | 7.28 | 3.27 | 8.45 | 9.08
AUUCACCUAGGUCUCCGGGUG [Fam2.2 aminoacylation ribozyme variant] | 47.5 | 4.71 | 7.84 | 4.49 | 9.35 | 8.48
ACUACCCUUGUCAUCGAGUGA [Fam2.1 aminoacylation ribozyme variant] | 28.7 | 3.28 | 6.22 | 3.24 | 6.34 | 6.54
CUACUUUAUACAAUCGGUCUG [Fam1A.1 aminoacylation ribozyme variant] | 0.815 | 0.857 | 0.832 | 0.882 | 0.808 | 0.626
AUUAACAUAGGUCAUCGGGUG [Fam2.2 aminoacylation ribozyme variant] | 38 | 3.92 | 6.29 | 3.51 | 7 | 6.55
CUACCUCAAACAAUCAGUCUG [Fam1A.1 aminoacylation ribozyme variant] | 1.74 | 0.649 | 0.588 | 0.647 | 0.671 | 0.702
AAGUUUACUAAUAGACGCAAG [Fam3.1 aminoacylation ribozyme variant] | 1.15 | 0.695 | 0.816 | 1.03 | 0.638 | 0.834
CUUCUUCAAACACUCGGUCUG [Fam1A.1 aminoacylation ribozyme variant] | 0.651 | 0.938 | 1.04 | 0.977 | 0.791 | 0.901
CGACACUCCAAGCAAUCGGUC [Fam1B.1 aminoacylation ribozyme variant] | 0.914 | 1.11 | 0.665 | 1.11 | 0.842 | 1.19
AUUACCCUGGUCAUCGGGUGG [Fam2.1 aminoacylation ribozyme variant] | 395 | 22.6 | 68 | 26.3 | 80.6 | 81.4
AUUAGCCUAGUCAUCGAGUGA [Fam2.1 aminoacylation ribozyme variant] | 4.14 | 2.47 | 2.65 | 2.18 | 2.79 | 3.09
AUUCCCAUGGUCAUCGAGUGA [Fam2.1 aminoacylation ribozyme variant] | 51.4 | 5.75 | 10.4 | 5.75 | 11.3 | 12.9
AUUACCUUGGUCAUAGAGUGA [Fam2.1 aminoacylation ribozyme variant] | 25.4 | 3.58 | 6.82 | 3.69 | 7.24 | 9.04
AUUCACCUAGGUCCUCGGCUG [Fam2.2 aminoacylation ribozyme variant] | 8.15 | 2.51 | 2.07 | 2.25 | 2.6 | 2.67
CGACACUUCAAGCAGUCGGUC [Fam1B.1 aminoacylation ribozyme variant] | 1.04 | 1.25 | 1.64 | 0.99 | 1.23 | 1.74
AAUCACCUAGGUCAUCUGGUG [Fam2.2 aminoacylation ribozyme variant] | 11.2 | 1.96 | 2.08 | 1.67 | 2.27 | 2.52
AAGUUGACUAAUAGUCGCAAG [Fam3.1 aminoacylation ribozyme variant] | 1.5 | 1.18 | 0.839 | 0.949 | 0.935 | 1.19
CCUAACUUCAAGCAAUCGGUC [Fam1B.1 aminoacylation ribozyme variant] | 46.5 | 1.18 | 1.02 | 1.01 | 1.54 | 19.9
